# Experimental data reported in FireProtDB (doi:10.1021/bi982828s).
# Several values for one entry are separate records, joined by “and”; a condition that tells them apart may be missing. Identical values can stand only once.
# Conditions: Arachis hypogaea, Thermal, DSC, Sodium phosphate 0.05 M, NaCl 0.15 M, transition: 3, reversible: yes, whole UniProt chain shown
protein,measurement,setting,value
"Galactose-binding lectin wild type, P02872 (protein) MKPFCVFLTFFLLLAASSKKVDSAETVSFNFNSFSEGNPAINFQGDVTVLSNGNIQLTNLNKVNSVGRVLYAMPVRIWSSATGNVASFLTSFSFEMKDIKDYDPADGIIFFIAPEDTQIPAGSIGGGTLGVSDTKGAGHFVGVEFDTYSNSEYNDPPTDHVGIDVNSVDSVKTVPWNSVSGAVVKVTVIYDSSTKTLSVAVTNDNGDITTIAQVVDLKAKLPERVKFGFSASGSLGGRQIHLIRSWSFTSTLITTTRRSIDNNEKKIMNMASA",Tm,pH 5.5,56.9 °C and 61.2 °C
same,unfolding enthalpy (calorimetric),pH 5.5,212 kcal/mol and 113 kcal/mol
same,Tm,pH 6,57.5 °C
same,unfolding enthalpy (calorimetric),pH 6,218 kcal/mol
same,Tm,pH 6.5,58 °C and 62.5 °C
same,unfolding enthalpy (calorimetric),pH 6.5,225 kcal/mol and 121 kcal/mol
same,Tm,pH 7,58.5 °C
same,unfolding enthalpy (calorimetric),pH 7,231 kcal/mol
same,unfolding enthalpy (van 't Hoff),pH 7.4,75.1 kcal/mol and 149 kcal/mol
same,Tm,pH 7.8,60.1 °C and 64.4 °C
same,unfolding enthalpy (calorimetric),pH 7.8,245 kcal/mol and 132 kcal/mol
same,Tm,pH 8.2,61.2 °C and 65 °C
same,unfolding enthalpy (calorimetric),pH 8.2,251 kcal/mol and 135 kcal/mol
